Data published in patent US20250154581A1 (BGI SHENZHEN, published 2025).

B1: Spytag003-DDA (enzyme)
chain: RGVPHIVMVDAYKRYKGGSGGSGGSGGSGGSGGSMTFDDLTEGQKNAFNIVMKAIKEKKHHVTINGPAGTGKTTLTKFIIEALISTGGTGIILAAPTHAAKKILSKLSGKEASTIHSILKINPVTYEENVLFEQKEVPDLAKCRVLICDEVSMYDRKLFKILLSTIPPWCTIIGIGDNKQIRPVEPGENTAYISPFFTHKDFYQCELTEVKRSNAPIIDVATDVRNGKWNYDKVVDGHGVRGFTGDTALRDFMVNYFSIVKSLDDLFENRVMAFTNKSVDKLNSIIRKKIFETDKDFIVGEIIVMQEPLFKTYKIDGKPVSEIIFNNGQLVRIIEAEYTSTFVKARGVPGEYLIRHWDLTVETYGDDEYYREKIKIISSDEELYKFNLFLAKTAETYKNWNKGGKAPWSDFWDAKSQFSKVKALPASTFHKAQGMSVDRAFIYTPCIHYADVELAQQLLYVGVTRGRYDVFYV
notes: Expressed from pET.28a(+)-6*His-Spytag003-DDA; also called 6*His-Spytag003-DDA; motor protein Spytag003-DDA
B2: Spycatcher003-MspA (other)
chain: MVTTLSGLSGEQGPSGDMTTEEDSATHIKFSKRDEDGRELAGATMELRDSSGKTISTWISDGHVKDFYLYPGKYTFVETAAPDGYEVATPIEFTVNEDGQVTVDGEATEGDAHTGGSGGSGGSGLDNELSLVDGQDRTLTVQQWDTFLNGVFPLDRNRLTREWFHSGRAKYIVAGPGADEFEGTLELGYQIGFPWSLGVGINFSYTTPNILIDDGDITAPPFGLNSVITPNLFPGVSISADLGNGPGIQEVATFSVDVSGAEGGVAVSNAHGTVTGAAGGVLLRPFARLIASTGDSVTTYGEPWNMN
notes: Subunit expressed as 6*His-Spycatcher003-MspA; also called 6*His-Spycatcher003-MspA

Columns and labels:
[1] = target: T1, Spycatcher003-MspA(MspA)7 (Mycolicibacterium smegmatis (strain …, UniProt A0QR29 28-211)); assay: mixed 1:1.2 (octamer:Spytag003-DDA), 25 C 30 min, covalent Spytag003/Spycatcher003 coupling; Superose 6 Increase size exclusion chromatography
T1 construct: Octamer of one Spycatcher003-MspA and seven Strep-MspA subunits, co-expressed in E. coli; also called Spycatcher003-labeled MspA octamer; MspA octamer formed by Spycatcher003-MspA and MspA in a ratio of 1:7
Protocol: The Spycatcher003-labeled MspA octamer obtained in the above step 4 was mixed with the Spytag003-DDA obtained in the above step 3 at a ratio of 1:1.2, and reacted at 25° C. for 30 minutes, the Superose 6 increase is used for size exclusion chromatography (Purification Buffer: 150 mM NaCl, 20 mM Tris, 0.05% Tween20) to remove excess Spytag003-DDA protein, and the DDA-Spytag/Spycatcher-MspA complex was collected.

[2] = target: T2, Strep-MspA (Mycolicibacterium smegmatis (strain …, UniProt A0QR29 28-211)); assay: co-expression, Strep column co-purification, nickel column imidazole gradient and ion exchange separation
T2 construct: Subunit co-expressed with 6*His-Spycatcher003-MspA; Called simply MspA where the 1:7 complex is described
Protocol: In the present application, an MspA octamer which only contains one molecule of Spycatcher003 was obtained through the following method. First, the bacterial cells co-expressing 6*His-Spycatcher003-MspA and Strep-MspA obtained in the above step 2 (2) were disrupted by high pressure (Lysis Buffer: 150 mM NaCl, 20 mM Tris, 1% DDM) and purified by Strep column (Wash Buffer: 150 mM NaCl, 20 mM Tris, 0.05% Tween 20; Elution buffer: 150 mM NaCl, 20 mM Tris, 10 mM desthiobiotin) to obtain complexes with different ratios of the two proteins. […] From this, the Spycatcher003-labeled MspA octamer was obtained.

Binder | binding result [1] | binding result [2]
B1 | binds | –
B2 | – | binds
